Laboratory results: paper doi:10.1101/852095 (bioRxiv, 2019)

B1: MED11 (natural protein, human, UniProt Q9P086 1-117, looked up)
chain: MATYSLANERLRALEDIEREIGAILQNAGTVILELSKEKTNERLLDRQAAAFTASVQHVEAELSAQIRYLTQVATGQPHEGSSYSSRKDCQMALKRVDYARLKLSDVARTCEQMLEN
B2: TAF9 (natural protein, human, UniProt Q16594 1-264, looked up)
chain: MESGKTASPKSMPKDAQMMAQILKDMGITEYEPRVINQMLEFAFRYVTTILDDAKIYSSHAKKATVDADDVRLAIQCRADQSFTSPPPRDFLLDIARQRNQTPLPLIKPYSGPRLPPDRYCLTAPNYRLKSLQKKASTSAGRITVPRLSVGSVTSRPSTPTLGTPTPQTMSVSTKVGTPMSLTGQRFTVQMPTSQSPAVKASIPATSAVQNVLINPSLIGSKNILITTNMMSSQNTANESSNALKRKREDDDDDDDDDDDYDNL
B3: GTF2A2 (natural protein, human, UniProt P52657 1-109, looked up)
chain: MAYQLYRNTTLGNSLQESLDELIQSQQITPQLALQVLLQFDKAINAALAQRVRNRVNFRGSLNTYRFCDNVWTFVLNDVEFREVTELIKVDKVKIVACDGKNTGSNTTE
B4: GTF2E2 (natural protein, human, UniProt P29084 1-291, looked up)
chain: MDPSLLRERELFKKRALSTPVVEKRSASSESSSSSSKKKKTKVEHGGSSGSKQNSDHSNGSFNLKALSGSSGYKFGVLAKIVNYMKTRHQRGDTHPLTLDEILDETQHLDIGLKQKQWLMTEALVNNPKIEVIDGKYAFKPKYNVRDKKALLRLLDQHDQRGLGGILLEDIEEALPNSQKAVKALGDQILFVNRPDKKKILFFNDKSCQFSVDEEFQKLWRSVTVDSMDEEKIEEYLKRQGISSMQESGPKKVAPIQRRKKPASQKKRRFKTHNEHLAGVLKDYSDITSSK
B5: MED31 (natural protein, human, UniProt Q9Y3C7 1-131, looked up)
chain: MAAAVAMETDDAGNRLRFQLELEFVQCLANPNYLNFLAQRGYFKDKAFVNYLKYLLYWKDPEYAKYLKYPQCLHMLELLQYEHFRKELVNAQCAKFIDEQQILHWQHYSRKRMRLQQALAEQQQQNNTSGK

target: recombinant NPM1 (Nucleophosmin), probe of the protein array (human, UniProt P06748 1-294); assay: peptide or protein array
Sequence (P06748 whole entry): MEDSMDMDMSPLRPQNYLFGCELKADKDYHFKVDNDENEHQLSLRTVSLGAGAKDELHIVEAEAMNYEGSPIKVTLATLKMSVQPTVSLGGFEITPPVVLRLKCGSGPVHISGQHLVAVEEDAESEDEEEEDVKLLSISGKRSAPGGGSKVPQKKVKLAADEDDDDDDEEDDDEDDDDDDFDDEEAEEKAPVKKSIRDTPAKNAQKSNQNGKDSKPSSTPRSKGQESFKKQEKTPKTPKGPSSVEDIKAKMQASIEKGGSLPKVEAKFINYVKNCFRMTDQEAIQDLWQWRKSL

Binding result, binds:
B1
B2
B3
B4
B5
